Legend:
[1] = biological target: T1, MBP-SUFU-FL (Homo sapiens, UniProt Q9UMX1); assay: SYPRO Orange initial fluorescence upon peptide addition, MBP-SUFU-FL; assay type: binding; details: excitation 470 nm, emission 570 nm, pH 7.0
T1 construct: containing residues 32–483 of human SUFU and a C-terminal hexahistidine tag; hexahistidine tag (C); made in house; host or cells: Escherichia coli JM109 (DE3)
Experimental: (§1) Recombinant MBP-SUFU proteins were diluted to 2.6 µM in 50 mM Na HEPES pH 7.0, 50 mM NaCl, 5 mM β-mercaptoethanol; the peptides GLI1p and GLI1p-SH (Supplementary Table S1b), synthesized by Dr W. Mawby (University of Bristol), were dissolved in the same buffer. Proteins were spun at 14 000g for 20 min at 4°C before adding SYPRO Orange (Molecular Probes) to a final concentration of 6×. Reaction volumes of 25 µl were prepared in 96-well PCR plates with 2.2 µM protein/SYPRO Orange solution and, where applicable, 44 µM peptide. Plates were sealed with optical tape, heated from 20 to 90°C in 12 s 0.2°C steps in an iCycler and fluorescence was detected using an excitation wavelength of 470 nm and an emission wavelength of 570 nm.
(§2) Recombinant MBP-SUFU constructs were diluted to 2.5 µM in 50 mM Na HEPES pH 7.0, 50 mM NaCl, 5 mM β-mercaptoethanol and spun at 14 000g for 20 min at 4°C before the addition of SYPRO Orange to a final 5× concentration of dye. The fluorescence of 100 µl samples was measured in black 96-well plates (Nunc) using excitation at λ = 470 nm and emission at λ = 570 nm. GLI1p or GLI1p-SH peptides prepared in the same buffer as above were added in the given ratios and mixed before a second reading was taken. Readings post-peptide addition were divided by the corresponding pre-peptide addition measurements to obtain normalized results. […]

[2] = biological target: T1, MBP-SUFU-FL; assay: Thermal stability assay with peptide, MBP-SUFU-FL; assay type: binding; details: 44 µM peptide, 2.2 µM protein, SYPRO Orange, 50 mM Na HEPES pH 7.0, 50 mM NaCl, 5 mM β-mercaptoethanol; triplicate
Experimental: (§3) Recombinant MBP-SUFU proteins were diluted to 2.6 μM in 50 mM Na HEPES pH 7.0, 50 mM NaCl, 5 mM β-mercaptoethanol; the peptides GLI1p and GLI1p-SH (Supplementary Table S1b), synthesized by Dr W. Mawby (University of Bristol), were dissolved in the same buffer. Proteins were spun at 14 000g for 20 min at 4°C before adding SYPRO Orange (Molecular Probes) to a final concentration of 6×. Reaction volumes of 25 μl were prepared in 96-well PCR plates with 2.2 μM protein/SYPRO Orange solution and, where applicable, 44 μM peptide. Plates were sealed with optical tape, heated from 20 to 90°C in 12 s 0.2°C steps in an iCycler and fluorescence was detected using an excitation wavelength of 470 nm and an emission wavelength of 570 nm. To determine whether the IDR affects the GLI-binding properties of SUFU, we used a human GLI1-derived peptide (GLI1p; residues 115-131; Supplementary Table S1b) containing the highly conserved SYGH motif important for interaction with SUFU (Dunaeva et al., 2003[▶]) in a thermal stability assay with MBP-SUFU-FL and MBP-SUFU-Δ (Fig. 4 ▶ a). The addition of GLI1p stabilized both proteins: T m for MBP-SUFU-FL was shifted by 4°C and that for MBP-SUFU-Δ was shifted by 3.6°C. […] The GLI1 dose dependency of this effect was confirmed in a separate experiment with increasing GLI1p concentrations (Supplementary Fig. […]).

[3] = biological target: T2, MBP-SUFU-Δ (Homo sapiens, UniProt Q9UMX1, DEL285-359/L360P/P281R/P282G/R280S/S279P); assay: Thermal stability assay with peptide, MBP-SUFU-Δ; assay type: binding; details: 44 µM peptide, 2.2 µM protein, SYPRO Orange, 50 mM Na HEPES pH 7.0, 50 mM NaCl, 5 mM β-mercaptoethanol; triplicate
T2 construct: subcloning different SUFU32–483 variants into vector pLJMBP4c; His tag (as in MBP-SUFU-FL; purified on HisTrap) (C); made in house; host or cells: Escherichia coli JM109 (DE3)
Experimental: as §3

[4] = biological target: T2, MBP-SUFU-Δ; assay: SYPRO Orange initial fluorescence upon peptide addition, MBP-SUFU-Δ; assay type: binding; details: excitation 470 nm, emission 570 nm, pH 7.0
Experimental: as §1, §2

[5] = test system: MBP-SUFU-SH; assay: SYPRO Orange initial fluorescence upon peptide addition, MBP-SUFU-SH; assay type: binding, human; details: excitation 470 nm, emission 570 nm, pH 7.0
Experimental: as §1, §2

T2 sequence (Q9UMX1 with tags, fused parts or gaps S279P/R280S/P281R/P282G/DEL285-359/L360P limits assumed, other chains not shown): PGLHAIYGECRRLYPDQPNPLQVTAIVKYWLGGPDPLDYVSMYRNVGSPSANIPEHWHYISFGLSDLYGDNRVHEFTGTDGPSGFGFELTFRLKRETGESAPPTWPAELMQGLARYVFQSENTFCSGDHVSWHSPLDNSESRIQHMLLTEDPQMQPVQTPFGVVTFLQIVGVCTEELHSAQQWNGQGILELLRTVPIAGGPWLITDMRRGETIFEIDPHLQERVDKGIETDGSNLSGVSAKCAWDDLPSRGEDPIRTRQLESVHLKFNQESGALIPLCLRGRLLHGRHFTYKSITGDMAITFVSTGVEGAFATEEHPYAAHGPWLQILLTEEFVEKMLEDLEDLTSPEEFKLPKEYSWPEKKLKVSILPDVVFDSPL
T1 sequence (Q9UMX1 32-483, other chains not shown): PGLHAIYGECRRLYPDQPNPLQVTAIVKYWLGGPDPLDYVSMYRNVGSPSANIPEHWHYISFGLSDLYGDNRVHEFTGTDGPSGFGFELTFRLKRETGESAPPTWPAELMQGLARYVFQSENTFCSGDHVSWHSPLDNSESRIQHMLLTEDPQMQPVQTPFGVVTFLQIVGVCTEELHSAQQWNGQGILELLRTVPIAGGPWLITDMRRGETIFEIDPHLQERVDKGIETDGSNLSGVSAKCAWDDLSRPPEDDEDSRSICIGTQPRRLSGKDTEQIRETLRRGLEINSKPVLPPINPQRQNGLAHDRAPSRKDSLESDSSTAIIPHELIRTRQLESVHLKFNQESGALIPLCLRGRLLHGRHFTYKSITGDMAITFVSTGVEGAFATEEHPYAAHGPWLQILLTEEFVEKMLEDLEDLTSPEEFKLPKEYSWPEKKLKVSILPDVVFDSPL
MBP-SUFU-SH, sequence (Q9UMX1 32-278 limits assumed): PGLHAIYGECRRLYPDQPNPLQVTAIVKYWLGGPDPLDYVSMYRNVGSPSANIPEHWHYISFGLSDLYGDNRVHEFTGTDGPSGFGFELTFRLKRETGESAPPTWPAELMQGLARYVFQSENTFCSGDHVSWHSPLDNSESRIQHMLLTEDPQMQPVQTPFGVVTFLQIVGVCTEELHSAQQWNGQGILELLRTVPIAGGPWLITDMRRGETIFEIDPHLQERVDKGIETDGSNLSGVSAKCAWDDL
MBP-SUFU-SH, sequence (Q9UMX1 361-483 limits assumed): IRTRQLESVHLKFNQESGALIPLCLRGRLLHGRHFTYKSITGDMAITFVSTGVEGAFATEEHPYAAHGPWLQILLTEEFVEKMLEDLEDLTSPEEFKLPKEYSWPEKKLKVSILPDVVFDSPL

Question: How did the “initial fluorescence upon addition of GLI1p” value [1] turn out when “GLI1p: human GLI1-derived peptide; residues 115–131, containing the highly conserved SYGH motif (TSPGGSYGHLSIGTMSP)” was run?
Answer: high initial fluorescence values

Question: What about the Tm shift [2] of the same substance?
Answer: 4 °C

Question: And the Tm shift [3]?
Answer: 3.6 °C

Question: What about the “initial fluorescence upon addition of GLI1p” value [4] of the same substance?
Answer: no such effect

Question: What about the “initial fluorescence upon addition of GLI1p” value [5] of the same substance?
Answer: no such effect
